Results: patent publication US20090203048A1 (UNIVERSITY OF MASSACHUSETTS, published 2009)
Blank lines part the entries; values can stand above or below the molecule they belong to.

Assays:
[1] = molecular target: bombesin receptor of PC3 cells; experiment: 125I-ligand binding to PC3 cells, 37C
[2] = molecular target: bombesin receptor of PC3 cells; experiment: 125I-ligand binding to PC3 cells; with 12 µM phloretin
[3] = molecular target: bombesin receptor of PC3 cells; experiment: 125I-ligand binding to PC3 cells, 37C; with 60 µM MK886
[4] = molecular target: bombesin receptor of PC3 cells; experiment: 125I-ligand binding to PC3 cells; with 12 µM NIF
[5] = molecular target: bombesin receptor of PC3 cells; experiment: 125I-ligand binding to PC3 cells; with 60 µM NIF
[6] = molecular target: bombesin receptor of PC3 cells; experiment: 125I-ligand binding to PC3 cells; with 12 µM SKF-96365
[7] = molecular target: bombesin receptor of PC3 cells; experiment: 125I-ligand binding to PC3 cells, 37C; with 60 µM AA-861
[8] = molecular target: bombesin receptor of PC3 cells; experiment: 125I-ligand binding to PC3 cells, 37C; with 60 µM Rev-5901
[9] = molecular target: bombesin receptor of PC3 cells; experiment: displacement of 125I-ligand by unlabeled ligand, PC3 cells, 37C
[10] = molecular target: bombesin receptor of PC3 cells; experiment: 125I-ligand binding to PC3 cells, 37C; with 60 µM NDGA
[11] = molecular target: bombesin receptor of PC3 cells; experiment: 125I-ligand binding to PC3 cells; with 60 µM phloretin
[12] = molecular target: bombesin receptor of PC3 cells; experiment: 125I-ligand binding to PC3 cells; with 12 µM verapamil
[13] = molecular target: bombesin receptor of PC3 cells; experiment: 125I-ligand binding to PC3 cells, 37C; with 12 µM Rev-5901
[14] = molecular target: bombesin receptor of PC3 cells; experiment: 125I-ligand binding to PC3 cells, 37C; with 12 µM AA-861
[15] = molecular target: bombesin receptor of PC3 cells; experiment: 125I-ligand binding to PC3 cells, 37C; with 12 µM MK886
[16] = molecular target: bombesin receptor of PC3 cells; experiment: 125I-ligand binding to PC3 cells; with 60 µM verapamil
[17] = molecular target: bombesin receptor of PC3 cells; experiment: Scatchard analysis, PC3 cells, 37C
[18] = molecular target: bombesin receptor of PC3 cells; experiment: 125I-ligand binding to PC3 cells, 37C; with 12 µM NDGA
[19] = molecular target: bombesin receptor of PC3 cells; experiment: 125I-ligand binding to PC3 cells; with 60 µM SKF-96365
[20] = molecular target: vasopressin (V1a) receptor of PC3 cells (UniProt P37288); experiment: 125I-ligand binding to PC3 cells, 37C
vasopressin (V1a) receptor of PC3 cells, sequence (P37288 whole entry): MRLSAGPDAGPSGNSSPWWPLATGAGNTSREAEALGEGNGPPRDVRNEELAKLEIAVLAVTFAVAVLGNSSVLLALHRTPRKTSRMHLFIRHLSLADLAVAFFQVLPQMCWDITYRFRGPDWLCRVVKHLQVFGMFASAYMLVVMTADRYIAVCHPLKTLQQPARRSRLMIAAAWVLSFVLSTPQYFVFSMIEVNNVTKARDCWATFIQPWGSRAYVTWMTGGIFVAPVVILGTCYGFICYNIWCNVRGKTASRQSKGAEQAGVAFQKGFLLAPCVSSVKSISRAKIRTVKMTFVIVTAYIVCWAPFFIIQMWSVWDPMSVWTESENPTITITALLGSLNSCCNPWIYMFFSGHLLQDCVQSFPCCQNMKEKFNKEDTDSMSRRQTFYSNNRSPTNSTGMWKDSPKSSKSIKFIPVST

[21] = molecular target: vasopressin (V1a) receptor of PC3 cells (UniProt P37288); experiment: 125I-ligand binding to PC3 cells; with 12 µM phloretin
[22] = molecular target: vasopressin (V1a) receptor of PC3 cells (UniProt P37288); experiment: 125I-ligand binding to PC3 cells, 37C; with 60 µM MK886
[23] = molecular target: vasopressin (V1a) receptor of PC3 cells (UniProt P37288); experiment: 125I-ligand binding to PC3 cells; with 12 µM NIF
[24] = molecular target: vasopressin (V1a) receptor of PC3 cells (UniProt P37288); experiment: 125I-ligand binding to PC3 cells; with 60 µM NIF
[25] = molecular target: vasopressin (V1a) receptor of PC3 cells (UniProt P37288); experiment: 125I-ligand binding to PC3 cells; with 12 µM SKF-96365
[26] = molecular target: vasopressin (V1a) receptor of PC3 cells (UniProt P37288); experiment: 125I-ligand binding to PC3 cells, 37C; with 60 µM AA-861
[27] = molecular target: vasopressin (V1a) receptor of PC3 cells (UniProt P37288); experiment: 125I-ligand binding to PC3 cells, 37C; with 60 µM Rev-5901
[28] = molecular target: vasopressin (V1a) receptor of PC3 cells (UniProt P37288); experiment: displacement of 125I-ligand by unlabeled ligand, PC3 cells, 37C
[29] = molecular target: vasopressin (V1a) receptor of PC3 cells (UniProt P37288); experiment: 125I-HOLVA binding to PC3 cell membranes; with 60 µM NIF
[30] = molecular target: vasopressin (V1a) receptor of PC3 cells (UniProt P37288); experiment: 125I-ligand binding to PC3 cells, 37C; with 60 µM NDGA
[31] = molecular target: vasopressin (V1a) receptor of PC3 cells (UniProt P37288); experiment: 125I-ligand binding to PC3 cells; with 60 µM phloretin
[32] = molecular target: vasopressin (V1a) receptor of PC3 cells (UniProt P37288); experiment: 125I-ligand binding to PC3 cells; with 12 µM verapamil
[33] = molecular target: vasopressin (V1a) receptor of PC3 cells (UniProt P37288); experiment: 125I-ligand binding to PC3 cells, 37C; with 12 µM Rev-5901
[34] = molecular target: vasopressin (V1a) receptor of PC3 cells (UniProt P37288); experiment: 125I-HOLVA binding to PC3 cell membranes; with 60 µM verapamil
[35] = molecular target: vasopressin (V1a) receptor of PC3 cells (UniProt P37288); experiment: 125I-HOLVA binding to PC3 cell membranes; with 60 µM SKF-96365
[36] = molecular target: vasopressin (V1a) receptor of PC3 cells (UniProt P37288); experiment: 125I-ligand binding to PC3 cells, 37C; with 12 µM AA-861
[37] = molecular target: vasopressin (V1a) receptor of PC3 cells (UniProt P37288); experiment: 125I-ligand binding to PC3 cells, 37C; with 12 µM MK886
[38] = molecular target: vasopressin (V1a) receptor of PC3 cells (UniProt P37288); experiment: 125I-ligand binding to PC3 cells; with 60 µM verapamil
[39] = molecular target: vasopressin (V1a) receptor of PC3 cells (UniProt P37288); experiment: Scatchard analysis, PC3 cells, 37C
[40] = molecular target: vasopressin (V1a) receptor of PC3 cells (UniProt P37288); experiment: 125I-ligand binding to PC3 cells, 37C; with 12 µM NDGA
[41] = molecular target: vasopressin (V1a) receptor of PC3 cells (UniProt P37288); experiment: 125I-ligand binding to PC3 cells; with 60 µM SKF-96365
[42] = molecular target: T1, neurotensin receptor 1 (NTR1) of PC3 cells (UniProt P30989 1-418, limits assumed); experiment: UV crosslinking on PC3 cells, immunoprecipitated NTR1; with verapamil against control
T1 construct: whole, on cells; its antiserum peptide is from human NTR1; Some assays used isolated PC3 cell membranes or detergent or SDS extracts instead of live cells (see the assay field); also called NT receptor
T1 sequence (P30989 whole entry): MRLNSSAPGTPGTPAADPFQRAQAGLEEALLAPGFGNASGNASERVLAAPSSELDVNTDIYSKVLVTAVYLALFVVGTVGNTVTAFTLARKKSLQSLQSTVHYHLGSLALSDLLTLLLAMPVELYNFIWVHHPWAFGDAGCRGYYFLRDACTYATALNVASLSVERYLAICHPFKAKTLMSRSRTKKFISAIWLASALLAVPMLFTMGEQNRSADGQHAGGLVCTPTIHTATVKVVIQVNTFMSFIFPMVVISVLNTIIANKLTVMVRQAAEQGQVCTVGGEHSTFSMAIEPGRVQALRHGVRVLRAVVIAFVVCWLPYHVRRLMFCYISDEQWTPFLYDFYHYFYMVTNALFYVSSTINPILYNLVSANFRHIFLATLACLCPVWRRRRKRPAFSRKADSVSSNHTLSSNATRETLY

[43] = molecular target: T1, neurotensin receptor 1 (NTR1) of PC3 …; experiment: UV crosslinking on PC3 cells, immunoprecipitated NTR1; with 50 µM NDGA
[44] = molecular target: T1, neurotensin receptor 1 (NTR1) of PC3 …; experiment: UV crosslinking on PC3 cells, immunoprecipitated NTR1; with phloretin against control
[45] = molecular target: T1, neurotensin receptor 1 (NTR1) of PC3 …; experiment: UV crosslinking on PC3 cells, immunoprecipitated NTR1; with 50 µM MK886
[46] = molecular target: T1, neurotensin receptor 1 (NTR1) of PC3 …; experiment: UV crosslinking on PC3 cells, immunoprecipitated NTR1; with NIF against control

bombesin receptor of PC3 cells, sequence (P30550 whole entry): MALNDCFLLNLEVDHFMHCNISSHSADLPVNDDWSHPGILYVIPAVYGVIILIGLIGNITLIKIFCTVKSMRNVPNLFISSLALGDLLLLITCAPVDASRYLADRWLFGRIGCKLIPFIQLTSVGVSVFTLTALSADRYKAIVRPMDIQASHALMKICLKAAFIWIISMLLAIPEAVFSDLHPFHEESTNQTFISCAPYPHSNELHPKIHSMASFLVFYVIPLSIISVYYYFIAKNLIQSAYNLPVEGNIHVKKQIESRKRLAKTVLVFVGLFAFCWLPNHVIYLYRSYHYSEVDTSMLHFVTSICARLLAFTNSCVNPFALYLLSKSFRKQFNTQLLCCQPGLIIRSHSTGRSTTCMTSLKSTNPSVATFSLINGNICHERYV

Specific Binding (% of total) [1]: 95 % of total
Specific Binding (% control) [2]: 104 % control
Specific Binding (% control) [3]: 125 % control
Specific Binding (% control) [4]: 108 % control
Specific Binding (% control) [5]: 119 % control
Specific Binding (% control) [6]: 99 % control
Specific Binding (% control) [7]: 135 % control
Specific Binding (% control) [8]: 119 % control
Ki [9]: 0.6 nM
Specific Binding (% control) [10]: 127 % control
Specific Binding (% control) [11]: 111 % control
Specific Binding (% control) [12]: 104 % control
Specific Binding (% control) [13]: 107 % control
Specific Binding (% control) [14]: 112 % control
Specific Binding (% control) [15]: 106 % control
Specific Binding (% control) [16]: 104 % control
Bmax [17]: 1020 fmol/mg
Specific Binding (% control) [18]: 110 % control
Specific Binding (% control) [19]: 106 % control
Molecule: (Tyr 4, Nle 14)-bombesin (peptide)

Specific Binding (% of total) [20]: 77 % of total
Specific Binding (% control) [21]: 92 % control
Specific Binding (% control) [22]: 67 % control
Specific Binding (% control) [23]: 95 % control
Specific Binding (% control) [24]: 59 % control
Specific Binding (% control) [25]: 80 % control
Specific Binding (% control) [26]: 57 % control
Specific Binding (% control) [27]: 42 % control
Ki [28]: 0.5 nM
Binding (% control) [29]: 90 % control
Specific Binding (% control) [30]: 50 % control
Specific Binding (% control) [31]: 73 % control
Specific Binding (% control) [32]: 85 % control
Specific Binding (% control) [33]: 68 % control
Binding (% control) [34]: 91 % control
Binding (% control) [35]: 110 % control
Specific Binding (% control) [36]: 87 % control
Specific Binding (% control) [37]: 93 % control
Specific Binding (% control) [38]: 58 % control
Bmax [39]: 156 fmol/mg
Specific Binding (% control) [40]: 84 % control
Specific Binding (% control) [41]: 50 % control
Molecule: des-Gly-[Phaal, D-Tyr(Et)2, Lys6, Arg8]-vasopressin (HOLVA) (peptide)

fold increase in radioactivity associated with NTR1 [42]: 1.5 fold
fold increase in radioactivity associated with NTR1 [43]: 2.6 fold
fold increase in radioactivity associated with NTR1 [44]: 1.8 fold
fold increase in radioactivity associated with NTR1 [45]: 2.7 fold
fold increase in radioactivity associated with NTR1 [46]: 2.8 fold
B1: ^125I-[4-azido-Phe^6]-NT (peptide)
peptide: ELYENFPRRPYIL
modifications: 4-azido-Phe at position 6; pGlu at position 1; 125I iodinated
notes: the residue at 6 is 4-azido-phenylalanine
